The values that follow come from paper PMC8053116.

The target in the assay is multi-tRNA synthetase complex without ArgRS and GlnRS (human (endogenous in HEK 293T)) (UniProt P56192). Nature of the assay: SEC; lysate of wildtype 293T cells (20 mM Tris-HCl pH 7.5, 1 mM EDTA, 150 mM NaCl, 0.1% IGEPAL CA-630) on Superdex 200 in Dulbecco's PBS; 1 ml fractions analysed by western blot; intact MSC in fractions 10-12. (SEC sorts molecules by how far they enter the pores of the column.)
Sequence of UniProt P56192 (P56192 whole entry, looked up, one chain of several): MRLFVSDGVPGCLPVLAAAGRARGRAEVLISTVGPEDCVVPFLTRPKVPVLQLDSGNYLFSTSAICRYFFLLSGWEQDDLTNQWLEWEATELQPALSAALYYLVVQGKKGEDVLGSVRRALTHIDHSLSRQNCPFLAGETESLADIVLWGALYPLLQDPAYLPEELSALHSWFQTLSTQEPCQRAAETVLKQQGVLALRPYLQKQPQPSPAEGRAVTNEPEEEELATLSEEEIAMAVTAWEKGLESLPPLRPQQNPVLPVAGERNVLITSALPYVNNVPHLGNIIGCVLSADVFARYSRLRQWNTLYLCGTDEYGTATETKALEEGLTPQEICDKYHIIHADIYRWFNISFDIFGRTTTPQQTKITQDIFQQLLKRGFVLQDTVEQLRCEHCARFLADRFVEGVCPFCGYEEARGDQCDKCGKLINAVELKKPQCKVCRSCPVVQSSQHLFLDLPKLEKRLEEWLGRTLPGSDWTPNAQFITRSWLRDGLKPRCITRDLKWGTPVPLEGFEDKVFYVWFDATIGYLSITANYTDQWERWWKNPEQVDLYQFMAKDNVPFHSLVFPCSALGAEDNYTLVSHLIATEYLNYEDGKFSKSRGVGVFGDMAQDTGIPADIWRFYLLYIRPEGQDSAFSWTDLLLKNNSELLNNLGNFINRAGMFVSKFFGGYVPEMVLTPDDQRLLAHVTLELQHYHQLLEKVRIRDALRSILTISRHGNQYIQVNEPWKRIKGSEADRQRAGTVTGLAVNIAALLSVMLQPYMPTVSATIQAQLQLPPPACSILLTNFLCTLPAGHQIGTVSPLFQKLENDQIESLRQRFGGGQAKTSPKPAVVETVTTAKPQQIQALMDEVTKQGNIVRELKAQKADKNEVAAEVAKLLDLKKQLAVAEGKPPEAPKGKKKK

B1: arginyl-tRNA synthetase, full-length (enzyme)
chain: MDVLVSECSARLLQQEEEIKSLTAEIDRLKNCGCLGASPNLEQLQEENLKLKYRLNILRKSLQAERNKPTKNMINIISRLQEVFGHAIKAAYPDLENPPLLVTPSQQAKFGDYQCNSAMGISQMLKTKEQKVNPREIAENITKHLPDNECIEKVEIAGPGFINVHLRKDFVSEQLTSLLVNGVQLPALGENKKVIVDFSSPNIAKEMHVGHLRSTIIGESISRLFEFAGYDVLRLNHVGDWGTQFGMLIAHLQDKFPDYLTVSPPIGDLQVFYKESKKRFDTEEEFKKRAYQCVVLLQGKNPDITKAWKLICDVSRQELNKIYDALDVSLIERGESFYQDRMNDIVKEFEDRGFVQVDDGRKIVFVPGCSIPLTIVKSDGGYTYDTSDLAAIKQRLFEEKADMIIYVVDNGQSVHFQTIFAAAQMIGWYDPKVTRVFHAGFGVVLGEDKKKFKTRSGETVRLMDLLGEGLKRSMDKLKEKERDKVLTAEELNAAQTSVAYGCIKYADLSHNRLNDYIFSFDKMLDDRGNTAAYLLYAFTRIRSIARLANIDEEMLQKAARETKILLDHEKEWKLGRCILRFPEILQKILDDLFLHTLCDYIYELATAFTEFYDSCYCVEKDRQTGKILKVNMWRMLLCEAVAAVMAKGFDILGIKPVQRM
Molecule B1 registered a percent of ArgRS not bound to the MSC of 40%.
